Publication PMC8245568, “Xyloglucan processing machinery in Xanthomonas pathogens and its role in the transcriptional activation of virulence factors” (Nature Communications, 2021)

Legend:
[1] = biological target: the molecule itself; assay: SEC-MALS; 25 °C; Superdex 200 HR 10/300 GL; 250 μL of protein at 50 μmol L^-1 injected; 20 mmol L^-1 HEPES pH 7.5, 150 mmol L^-1 NaCl
[2] = biological target: the molecule itself; assay: SAXS; protein samples at 1, 3, 5 and 10 mg mL^-1; D01A-SAXS2 beamline (LNLS); molecular weight by SAXSMoW

Protein | stoichiometry N [1] | stoichiometry N [2]
XacGalD, GH35 β-galactosidase encoded by XAC1772 of Xanthomonas citri pv. citri 306, wild type (enzyme, source: E. coli, purified (two chromatographic steps)) not shown | 4 | –
XacAfc95, GH95 α-1,2-L-fucosidase encoded by XAC1774 of Xanthomonas citri pv. citri 306 (enzyme, A signal peptide was probably left out of the construct (surmise); also called GH95 α-L-fucosidase; source: E. coli, purified (two chromatographic steps)) not shown | – | 2
